Measurements as given in US20220089784A1 (University of California, published 2022).

Tests used:
[1] = target: T1, BoNT/B light chain (recombinant) (Clostridium botulinum, UniProt P10844 1-441); experiment: yeast scFv FACS
T1 sequence: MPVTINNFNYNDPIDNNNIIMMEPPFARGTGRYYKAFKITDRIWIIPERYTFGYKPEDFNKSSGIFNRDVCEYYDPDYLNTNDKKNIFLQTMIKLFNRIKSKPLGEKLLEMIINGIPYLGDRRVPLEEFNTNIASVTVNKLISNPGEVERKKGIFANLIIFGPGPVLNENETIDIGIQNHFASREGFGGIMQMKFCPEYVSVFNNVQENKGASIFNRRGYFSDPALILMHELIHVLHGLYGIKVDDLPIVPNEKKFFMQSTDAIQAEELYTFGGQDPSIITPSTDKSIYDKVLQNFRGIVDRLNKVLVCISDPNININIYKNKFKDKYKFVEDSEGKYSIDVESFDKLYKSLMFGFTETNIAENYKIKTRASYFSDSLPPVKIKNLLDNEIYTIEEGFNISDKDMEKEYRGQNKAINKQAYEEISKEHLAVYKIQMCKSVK

[2] = target: T2, BoNT/B1 (Clostridium botulinum, UniProt P10844 2-1291); experiment: yeast scFv FACS
T2 sequence: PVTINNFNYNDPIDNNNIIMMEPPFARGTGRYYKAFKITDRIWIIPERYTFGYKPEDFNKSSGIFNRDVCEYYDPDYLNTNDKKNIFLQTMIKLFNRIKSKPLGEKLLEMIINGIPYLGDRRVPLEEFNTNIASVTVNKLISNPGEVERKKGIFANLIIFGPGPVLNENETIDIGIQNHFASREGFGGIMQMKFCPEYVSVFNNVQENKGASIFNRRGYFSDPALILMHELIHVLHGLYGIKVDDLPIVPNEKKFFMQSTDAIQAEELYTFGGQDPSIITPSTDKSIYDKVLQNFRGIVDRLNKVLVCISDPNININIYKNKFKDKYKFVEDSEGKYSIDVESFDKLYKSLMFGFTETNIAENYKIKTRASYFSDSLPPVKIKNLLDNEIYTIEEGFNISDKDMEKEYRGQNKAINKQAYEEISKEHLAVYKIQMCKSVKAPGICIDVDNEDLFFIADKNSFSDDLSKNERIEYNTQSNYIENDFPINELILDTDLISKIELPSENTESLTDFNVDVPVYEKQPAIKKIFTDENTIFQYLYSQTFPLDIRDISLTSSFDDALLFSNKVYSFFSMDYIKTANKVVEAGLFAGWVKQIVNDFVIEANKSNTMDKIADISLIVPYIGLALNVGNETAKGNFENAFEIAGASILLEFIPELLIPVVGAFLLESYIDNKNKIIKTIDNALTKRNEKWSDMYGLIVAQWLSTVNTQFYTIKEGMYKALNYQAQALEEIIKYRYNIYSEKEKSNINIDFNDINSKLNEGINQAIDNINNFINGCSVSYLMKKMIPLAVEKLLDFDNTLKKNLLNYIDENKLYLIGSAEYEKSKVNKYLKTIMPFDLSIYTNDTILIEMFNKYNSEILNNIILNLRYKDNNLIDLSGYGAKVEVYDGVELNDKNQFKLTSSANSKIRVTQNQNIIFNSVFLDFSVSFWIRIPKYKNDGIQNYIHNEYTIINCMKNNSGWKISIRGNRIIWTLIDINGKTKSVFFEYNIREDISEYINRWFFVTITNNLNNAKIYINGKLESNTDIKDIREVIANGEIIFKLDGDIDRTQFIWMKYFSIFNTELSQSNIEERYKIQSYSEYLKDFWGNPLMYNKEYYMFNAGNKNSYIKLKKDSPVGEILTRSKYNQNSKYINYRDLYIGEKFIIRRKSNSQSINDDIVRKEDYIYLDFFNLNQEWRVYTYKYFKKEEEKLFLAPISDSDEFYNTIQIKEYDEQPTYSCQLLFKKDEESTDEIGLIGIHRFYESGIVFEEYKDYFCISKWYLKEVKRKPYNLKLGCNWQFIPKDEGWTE

[3] = target: T3, BoNT/F1 (proteolytic BoNT/F) (Clostridium botulinum, UniProt A7GBG3 1-1278); experiment: IgG
T3 sequence: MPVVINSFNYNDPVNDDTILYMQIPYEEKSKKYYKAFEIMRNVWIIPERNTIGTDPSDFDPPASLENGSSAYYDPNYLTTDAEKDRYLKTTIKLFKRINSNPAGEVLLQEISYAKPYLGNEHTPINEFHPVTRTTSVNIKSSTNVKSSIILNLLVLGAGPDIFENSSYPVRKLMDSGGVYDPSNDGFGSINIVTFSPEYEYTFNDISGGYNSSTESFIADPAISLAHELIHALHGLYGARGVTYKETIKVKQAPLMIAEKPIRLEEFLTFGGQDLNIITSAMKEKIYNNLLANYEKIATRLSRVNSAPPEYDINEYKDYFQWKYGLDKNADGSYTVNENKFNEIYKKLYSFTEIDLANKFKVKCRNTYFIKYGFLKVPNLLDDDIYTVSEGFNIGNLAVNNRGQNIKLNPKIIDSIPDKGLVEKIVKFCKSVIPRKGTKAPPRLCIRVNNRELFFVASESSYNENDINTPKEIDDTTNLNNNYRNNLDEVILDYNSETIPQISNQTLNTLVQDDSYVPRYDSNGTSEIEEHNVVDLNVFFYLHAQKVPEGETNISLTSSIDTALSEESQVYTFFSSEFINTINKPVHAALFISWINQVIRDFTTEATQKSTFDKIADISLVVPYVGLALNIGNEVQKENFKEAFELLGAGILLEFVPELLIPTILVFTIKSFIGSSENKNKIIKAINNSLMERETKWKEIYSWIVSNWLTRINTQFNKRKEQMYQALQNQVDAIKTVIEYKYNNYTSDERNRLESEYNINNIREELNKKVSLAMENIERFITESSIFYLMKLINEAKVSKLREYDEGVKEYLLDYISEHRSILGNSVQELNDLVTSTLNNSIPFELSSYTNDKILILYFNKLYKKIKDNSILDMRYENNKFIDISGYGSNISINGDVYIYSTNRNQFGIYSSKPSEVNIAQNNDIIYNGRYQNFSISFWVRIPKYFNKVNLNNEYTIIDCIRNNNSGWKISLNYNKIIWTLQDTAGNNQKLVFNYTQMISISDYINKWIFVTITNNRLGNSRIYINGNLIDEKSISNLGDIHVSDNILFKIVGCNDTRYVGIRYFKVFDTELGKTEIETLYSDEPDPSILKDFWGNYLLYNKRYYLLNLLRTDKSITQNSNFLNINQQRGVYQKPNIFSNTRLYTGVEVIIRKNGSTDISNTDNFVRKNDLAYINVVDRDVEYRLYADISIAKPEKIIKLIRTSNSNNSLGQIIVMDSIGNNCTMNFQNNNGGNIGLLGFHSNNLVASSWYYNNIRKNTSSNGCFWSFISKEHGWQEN

Binder | Kd [1] [nM] | Kd [2] [nM] | Kd [3] [nM]
19A9 scFv (scFv, mouse) scFv: EVQLQQPGSELARPGASVKLSCKASGYTFTSYPITWVKQTTGQGLEWIGEIYPRSGNTYYNEKFKGKATLTADKSSSTAYMELRSLTSEDSAVYFCARDYYDYAGGGRGYWGQGTTLTVSSVDLKSGGSTSGSGKPGSGEGSSGSARDIVLTQSPAIMSASPGGKITITCSASSSVSYMHWFQQKPGTSPKLWIYSTSNLASGVPARFSGSGSGTSYSLTISRMEAEDAATYYCQQRSSYPYTFGGGTKLEIK | 3.16 | 1.98 | 
19D2 scFv (scFv, mouse) scFv: EVQLQQSGGELARPGSSVKLSCKASGYSFTGYSLTWVKQTPGQGLEWIGEIYPRSGNTYYNENFQGKATLTADESSSTAYMELRSLTSEDSAVYFCARDFYDYDGGGRGYWGQGTTLTVSSVDLKSGGSTSGSGKPGSGEGSSGSARDIVMTQTPAIMSASPGEKVTITCSASSSVSYMHWYQQKPGTSPKLWIYSTSNLASGVPARFSGSGSGTSYSLTISRMEAEDAATYYCQQRSSYPYTFGGGTKLEIK | 5.69 | 2.95 | 
19D22 scFv (scFv, mouse) scFv: QIQLLQSGAELVRPGTSVKMSCKAAGYPFTSYWMGWVKQRPGHGLEWIGDIYPGGPYTNYNEKFKGKATLTADTSSSTAYMQFSSLTSEDSAIYYCALYGQVGSYAMDYWGQGTSVTVSSVDLKSGGSTSGSGKPGSGEGSSGSARQIVLTQSPAIMSASPGEKVTMTCSASSSVSYMYWYQQKPGSSPRLLIYDTSNLASGVPVRFSGSGSGTSYSLTISRMEAEDAATYYCQQWSSYPPITFGAGTKLEIK | 21.2 | 7.39 | 
6F5 IgG (antibody, V domains shown) VH: EVQLVQSGGNLVQPGGSLRLSCAATGPIGSHWMTWVRQAPGQGLEWVANINLDGTEKFYVDSVKGRFTVSRDNRKSSVFLQMNNLRVDDTAVYYCARLQWGGYNGWLSPWGQGTLVTVSS VL: DIEMTQSPPSLSASVGDRVSLTCRASEYIGTSLNWYQQKPGKAPKLLIYAASALHSGVPSRFSGSGSGTDFTLTISGLQPEDFATYYCQQANDLPLTFGGGTKLEIK |  |  | 0.66
6F3 IgG (antibody, V domains shown, IgG from scFv V genes) VH: QVQLQQSGPEVVKPGASVKISCKASGYTFADYWIGWTKQGPGHGLEWIGHIYPGGGYINYNEKFKGKATLTADMSSSTAYMQFSSLTSEDSAIYYCARVTMVESGDWYFDVWGTGTTVTVSS VL: ENVLTQSPAIMSASLGEEITLTCSASSSVSYMHWYQQKSGTSPKLWIYYTSNLASGVPARFSGSGSGTSYSLTISSMEAEDAATYYCQQWSSNPYTFGGGTKLEIK |  |  | 2.39
18D10 scFv (scFv, mouse) scFv: QVQLKQSGIEVMKPGASVKLSCKASGYPFTAYWIEWVKQRPGHGLEWIGEFLPGGISTNFNEKFKGKATFSADTSSNSAYIQLNSLTTEDSAIYYCVLTGTGFDYWGQGTSVTVSSVDLKSGGSTSGSGKPGSGEGSSGSARENVLTQSPAIMSASPGEKVTMTCSASSSVSYMHWYQQKSGTSPKRWIYDTSKLASGVPARFSGSGSGTSYSLTISSMEAEDAATYYCQQWSSNPLTFGAGTKLELK | 7.53 | 5.97 | 
18E5 scFv (scFv, mouse) scFv: EVQLQESGPELVKPGASVKISCKASGYTFTDHNMDWVKQSLGKSLEWIGDINPNNGGAVYNQNFKGKATLTVDKSSSTAYMELRSLTSEDTAVYYCARYGYYGYFDYWGQGTTLTVSSVDLKSGGSTSGSGKPGSGEGSSGSARQIVLTQSPAIMSASPGEKVTMTCRASSSVSSSYLHWYQQKPGSSPKLWIYSTSNLASGVPARFSGSGSGTSYSLTISSVEAEDAATYYCQQYDSSPSTFGAGTKLEIK | 1 | 1.33 | 
18A6 scFv (scFv, mouse) scFv: EVQLQQSGPELVKPGASVKISCKASGYTFTDNYINWVKQRPGQGLEWIGWIYPGSGNTKYNEKFKGKATLTVDTSSNTAYMQLTGLASDDSAVYFCARVNFYVSWDYWGQGTSVTVSSVDLKSGGSTSGSGKPGSGEGSSGSAREIVLTQSPAIMSASPGEKVTMTCSASSSISYMHWFQQKPGMSPKRRIFDTSKLASGVPARFSGSGSGTSYSLTISSMEAEDAGTYYCHQRSSYPFTFGGGTKLELK | 4.21 | 14.5 | 
19B6 scFv (scFv, mouse) scFv: QVQLQQSGAELVKPGASVKISCKASGYTFTDNYINWVKQRPGQGLEWIGWIHPGSGNAKYNEKFRAKATLTVDTSSNTAYMQLSSLTSEDSAVYFCARVGFRVNFDYWGQGTTLTVSSVDLKSGGSTSGSGKPGSGEGSSGSARQIVLTQSPAIMSASPGEKVTMTCSASSSLSYVHWYQQKPGSSPKPWIYATSNLVSGVPARFSGSRSGTSYSLTISSMEAEDAATYYCQQWSSYPPTFGAGTKLEIK | 2.35 | 19.7 | 
16B3 scFv (scFv, mouse) scFv: EVQLQQSGPELVKPGASVKITCKASGYTFTDNNMDWVKQSHGKSLEWIGDINPNNGGSIYNQKFKGKASLTLDKSSSTAYMELRSLTSEDTAVYYCARWGYYGSLAYWGQGTLVTVSSVDLKSGGSTSGSGKPGSGEGSSGSARQNVLTQSPAIMSASPGEKVTMTCSASSSVSSRYLHWYQQKSGASPKLWIYGTSNLASGVPARFSGSGSGTSYSLTISSVEAEDAATYYCQQYHSDPLTFGGGTKLEIK | 0.84 | 1.01 | 
16D5 scFv (scFv, mouse) scFv: EVKLVESGAELVRPGASVKLSCTPSGFNIKDDYMHWVKQRPEQGLEWIGRIDPANGNTRYAPKFQDKATLTADTSSNTAYLHLTSLTSEDTAVYYCARSYYRAWFDYWGQGTLVTVSSVDLKSGGSTSGSGKPGSGEGSSGSARQIVLTQSPATLSVTPGDSVSLSCRASQSISNNLHWYQQKSHESPRLLIKYASQSISGIPSRFSGSGSGTDFTLSINSVETEDFGMYFCQQSNSWPLTFGAGTRLEIK | 1.8 | 7.57 | 
